The values that follow come from patent US11413329B2, “Cancer cell trap” (BOARD OF REGENTS, THE UNIVERSITY OF TEXAS SYSTEM, priority 2012, dated 2022).

Entries after “also recorded” stand apart in the source; their conditions may differ.

For series [1], the system named is B16F10 melanoma cells. In words: Murine cancer metastasis model: melanoma cell migration to subcutaneous microsphere implants and lymph nodes. It is filed as in vivo, C57BL/6 mice. Particulars: B16F10 cells intraperitoneal. Here is the method:
The animal experiments were carried out using C57BL/6 mice (6-10 week old) from Jackson Laboratory (Bar Harbor, Me., USA). This murine cancer metastasis model comprised of two consecutive steps. First, biomaterial microspheres (75 mg/0.5 ml saline/mouse) were implanted in the dorsal subcutaneous space of mice to elicit localized subcutaneous inflammation. Second, after microsphere implantation for different periods of time (6 hours-14 days), cancer cells (5×10^6 cells/0.2 ml/mouse) were transplanted in the peritoneal cavity. 24 h after tumor cell trans-plantation the animals were sacrificed. The vital organs, lymph nodes, the microsphere implants and surrounding tissues were then recovered and frozen in OCT embedding media (Polysciences Inc., Warrington, Pa., USA) at −80° C. The peripheral blood was also collected for further analysis. […]
Immunohistological analyses for CD11b+ inflammatory cells and HMB45+ melanoma cells were carried out to assess the degree of implant-mediated inflammatory responses and melanoma cell migration, respectively. […] FITC-conjugated antibody incubated tissue section was ready for image analysis. […] All tissue section images were taken using a Leica fluorescence microscope (Leica Microsystems GmbH, Wetzlar, Germany) equipped with a Retiga-EXi CCD camera (QImaging, Surrey, BC, Canada) as described earlier. […]

Series [2] deals with CD11b+ inflammatory cells. In words: Murine cancer metastasis model: inflammatory cell recruitment to subcutaneous microsphere implants. It is filed as in vivo, C57BL/6 mice. Particulars: vs control. The protocol: The animal experiments were carried out using C57BL/6 mice (6-10 week old) from Jackson Laboratory (Bar Harbor, Me., USA). This murine cancer metastasis model comprised of two consecutive steps. First, biomaterial microspheres (75 mg/0.5 ml saline/mouse) were implanted in the dorsal subcutaneous space of mice to elicit localized subcutaneous inflammation. Second, after microsphere implantation for different periods of time (6 hours-14 days), cancer cells (5×10^6 cells/0.2 ml/mouse) were transplanted in the peritoneal cavity. 24 h after tumor cell trans-plantation the animals were sacrificed. The vital organs, lymph nodes, the microsphere implants and surrounding tissues were then recovered and frozen in OCT embedding media (Polysciences Inc., Warrington, Pa., USA) at -80° C. The peripheral blood was also collected for further analysis. Eight μm thick sections were sliced using a Leica Cryostat (CM1850) and placed on poly-L-lysine coated slides for histological and immunohistochemical analyses. […] FITC-conjugated antibody incubated tissue section was ready for image analysis. […] All tissue section images were taken using a Leica fluorescence microscope (Leica Microsystems GmbH, Wetzlar, Germany) equipped with a Retiga-EXi CCD camera (QImaging, Surrey, BC, Canada) as described earlier. […]

For series [3], the system named is PC3 prostate cancer cells. In words: PC3 prostate cancer cell recruitment to PEG hydrogel cancer cell traps. It is filed as in vivo, mouse. Particulars: C57 mice, released from subcutaneous PEG hydrogel, 24 hours after intravenous transplantation, fluorescence intensity, vs saline. An excerpt: Using near-infrared labeled PC3 prostate cell transplanted mice, the effect of hydrogel cancer cell traps in reducing cancer metastasis was studied. Specifically, PEG hydrogel was fabricated as following. Carboxyl-terminal PEG derivative polymer was synthesized using free radical polymerization. In brief, 4,4′-azobis(4-cyanovaleric acid) and various weight ratios (10:1-20:1) of 2-(2-Methoxyethoxy)ethyl methacrylate (MEO2MA) and oligo(ethylene glycol)monomethyl ether methacrylates (Mw:475;OEOMA475) were dissolved in ethanol to form a 20 wt % monomer solution. The solution was purged with nitrogen gas for 10 min and incubated at 60° C. for 6 h. The solvent was then removed with evaporation under vacuum and the crude polymers are re-dissolved in DI water and were purified with exhaust dialysis against DI water and then lyophilized. The low critical solution temperature (LCST) of the carboxyl-terminal PEG derivative polymers was determined using an UV-vis spectrometer. By changing the molar ratios of MEO2MA to OEOMA475, the carboxyl-terminal PEG derivative polymer with LCST of 32° C. was achieved and the polymer used to fabricate thermogelling bioactive hydrogel scaffold as described below. Incorporation of chemokines/cytokines to PEG hydrogel was achieved by physical adsorption. PEG hydrogel was mixed with vascular endothelial growth factor (VEGF) (100 ng/ml), erythropoietin (EPO) (100 international unit/ml), stromal derived factor-1α (SDF-1α) or saline (as control). The hydrogel samples were then injected into the subcutaneous cavity (under the skin) of C57 mice via 20 gauge needles. The mice were then transplanted intravenously with PC3 prostate cancer cells (5×10^6/mouse).

Series [4] can be described thus: Release rates of chemokines/growth factors from cancer cell traps. Particulars: for Release rates: optimal release rate from cancer cell traps; for Duration: release from cancer cell traps. An excerpt:
The Experiments have been carried out to determine the release rates of various cancer stem cell chemokines/growth factors from cancer cell traps. The optimal release rates for each biomolecules are listed below.
Cancer cell trap size and dimension for human patients. All studies carried out thus far used mice cancer models. Since the cancer cells are recruited based on the chemokines gradient, localized concentrations, but not the systemic concentrations, are the determining factors. In other words, the effectiveness of the cancer cell traps are determined on the localized release rates as listed in the above table.

Series [5] in a line: Release kinetics of cytokines/growth factors from MB scaffolds. Particulars: gelatin MB scaffolds; for sustained release, share of total amounts per day: after the bolus; for bolus release: within the first 24 hours. An excerpt:
Chemokine/growth factor loaded PLGA scaffolds were fabricated using our protein microbubble fabrication method. Briefly, 2-20% w/v protein solution with various chemokines was overlaid with nitrogen gas and sonicated using a probe sonicator (Ultrasonix, Bothell, Wash.) at 20 kHz for 10 seconds. Protein solution can be composed of single proteins or protein mixtures in different ratios. The potential protein candidates including albumin, collagen, gelatin, immunoglobulins, extracellular matrix proteins, fibronectin, etc. Protein microbubble solutions can be added to PLGA (3-15% w/v in 1,4 dioxane) in a 1:1 ratio and gently agitated. They were then quenched in liquid nitrogen and lyophilized for 72 hours at 0.01-0.1 mBar vacuum in a Freezone 12 lyophilizer (Labconco, Kansas City, Mo., USA).
The microbubble (MB) scaffolds were analyzed using Scanning Electron Microscopy. […] Protein distribution and internal architecture of the scaffolds was determined by staining histological sections with Coomassie Blue as described earlier. […] In contrast, Coomassie Blue staining of the gelatin MB scaffold sections indicated the presence of protein around the pores and throughout the matrix of the gelatin MB scaffolds (FIG. 12C). The compressive strength of the scaffolds was tested using an MTS Insight 2 machine fitted with a 500 N load cell. Samples (5 mm width and 5 mm thickness) were compressed to 10% strain at a deflection rate of 2 mm/min. The Young's modulus was calculated from the slope of the curve similar to our earlier publication. […] Finally, the release kinetics of cytokines/growth factors from MB scaffolds was determined using Oyster 800-conjugated EPO and Oyster 800-conjugated SDF.

Regarding `c1cc(CN2CCCNCCNCCCNCC2)ccc1CN1CCCNCCNCCCNCC1` [AMD3100], the “accumulation of melanoma cells in lymph nodes” value in series [1] (PLA microsphere-bearing mice, vs saline) was “no effect”. Moreover, the “recruitment of melanoma cells (HMB45+) to the subcutaneous microsphere implantation site” value in series [1] (subcutaneous microsphere implants, 24 h after transplantation, vs control) is recorded as “drastically reduced; also recorded: inhibited”. Moreover, the “inflammatory cell (CD11b+) recruitment to the subcutaneous microsphere implantation site” value in series [2] is recorded as “drastically reduced”.

Take “EPO: erythropoietin, released from cancer cell traps”: in series [3], the “recruitment of PC3 prostate cancer cells to the implant sites” value (“recruitment of PC3 prostate cancer cells” for short) is reported as “increased the recruitment”. Further, in series [4], the Release rates is listed as 1.5-2.5 international international units/1 milliliter of hydrogel/particle cancer traps or 1 cubic centimeters scaffold traps/days and the Duration is listed as more than 30 days.

For the molecule “Hepatocyte growth factor (HGF/SF): hepatocyte growth factor/scatter factor released from cancer cell traps”, in series [4], the Release rates is reported as 15 ng/1 milliliter of ng/1 milliliter of hydrogel/particle cancer traps or 1 cubic centimeters scaffold traps/day and the Duration is listed as more than 28 days.

Turning to “Oyster 800-conjugated EPO: NIR dye conjugated EPO released from gelatin MB scaffolds”, in series [5], the “sustained release, share of total amounts per day” value was “approximately 2%” and the bolus release is listed as 20%.

Consider “Oyster 800-conjugated SDF: NIR dye conjugated SDF released from gelatin MB scaffolds”, for which, in series [5], the “sustained release, share of total amounts per day” value was “approximately 2%” and the bolus release worked out at 20%.

Turning to “RANTES/CCL5: chemokine released from cancer cell traps”, in series [4], the Release rates is reported as 10 ng/1 milliliter of ng/1 milliliter of hydrogel/particle cancer traps or 1 cubic centimeters scaffold traps/day and the Duration is reported as more than 21 days.

Regarding SDF-1α, in series [3], the “recruitment of PC3 prostate cancer cells” value is “increased the recruitment”. In series [4], the Release rates was 100 ng/1 milliliter of ng/1 milliliter of hydrogel/particle cancer traps or 1 cubic centimeters scaffold traps/day and the Duration is on record as more than 24 days.

In the case of VEGF, the “recruitment of PC3 prostate cancer cells” value in series [3] is recorded as “increased the recruitment”.
